Measured values published in patent US20230122503A1 (Janssen / Centocor, published 2023).
Changes are numbered by the printed parent chain.

B1: PSMB1157 conjugated to maleimide-PEG4-vcPAB-MMAF (antibody, human IgG1, lambda, V domains shown)
VH: EVQLVESGGGVVQPGRSLRLSCAASVRTFSGYGMHWVRQVPGKGLEWVAVISYDGSNRYYADSVKGRFTISRDNSKNTLYLQMNSLRTEDTAVYYCARDGNWGSLDLYFDLWGRGTLVTVSS
VL: QSVLTQPPSVSGAPGQRVTISCTGSSSNIGADYDVHWYQQLPGTAPKLLIYVNNNRPSGVPDRFSGSRSGTSASLAITGLQADDEADYYCQSYDNTLSGVVFGGGTKLTVLG
modifications: maleimide-PEG4-vcPAB-MMAF and N-ethyl maleimide on reduced cysteines (sites not given)
B2: PSMB1156 conjugated to maleimide-PEG4-vcPAB-MMAF (antibody, human IgG1, lambda, V domains shown)
VH: EVQLVESGGGVVQPGRSLRLSCAASGFTFTSYGMHWVRQAPGKGLEWVAVISYDGSNKYYADSVKGRFTISRDNSKNTLYLQMNSLRAEDTAVYYCAREHYDSSGYYHGYYGMDVWGQGTTVTVSS
VL: not shown
modifications: maleimide-PEG4-vcPAB-MMAF and N-ethyl maleimide on reduced cysteines (sites not given)
B3: PSMB1183 conjugated to maleimide-PEG4-vcPAB-MMAF (antibody, human IgG1, lambda, V domains shown)
VH: QVQLQESGPGLVKSSETLSLTCTVSGGSISSYYWNWIRQPAGKGLEWIGRIYSSGNTDYNPSLKSRVTMSVDTSKNQFSLKLISVTAADTAVYYCARGRGANVGLFDYWGQGTLVTVSS
VL: QSALTQPPSVSGAPGQRVTISCTGSNSNIGANYDVHWYQHLPGTAPKLLIYGNINRPLGVPDRFSGSRSGTSASLAITGLQAEDEADYYCQSYDFSLSGSVFGVGTKLTVLG
modifications: maleimide-PEG4-vcPAB-MMAF and N-ethyl maleimide on reduced cysteines (sites not given)
B4: PSMB1154 conjugated to MC-GGFG-DX8951 (antibody, human IgG1, lambda, V domains shown)
VH: EVQLVESGGGEVQPGRSLRLTCAVSGFTLSRYGMHWVRQAPGKGLEWAALISYDGSNRYYADSVKGRFTISRDNSKNTVFLQMNSLRAEDTAVYYCARERESSGWFEGYFDYWGQGTTVTVSS
VL: QLVLTQPPSVSVAPGQTARITCGGNNIGSKSVHWYQQKPGQAPVLVVYDNSDRPSGIPERFSGSNSGNTATLTISRVEVGDEADYYCQVWDSSSDHVVFGGGTKLTVLG
modifications: MC-GGFG-DX8951 on reduced cysteines, DAR 8.0
B5: PSMB1157 conjugated to MC-GGFG-DX8951 (antibody, human IgG1, lambda, V domains shown)
VH: B1 VH
VL: B1 VL
modifications: MC-GGFG-DX8951 on reduced cysteines, DAR 8.0
B6: PSMB1156 conjugated to MC-GGFG-DX8951 (antibody, human IgG1, lambda, V domains shown)
VH: B2 VH
VL: not shown
modifications: MC-GGFG-DX8951 on reduced cysteines, DAR 8.0
B7: PSMB1183 conjugated to MC-GGFG-DX8951 (antibody, human IgG1, lambda, V domains shown)
VH: B3 VH
VL: B3 VL
modifications: MC-GGFG-DX8951 on reduced cysteines, DAR 8.0
B8: PSMB1154 conjugated to maleimide-PEG4-vcPAB-MMAF (antibody, human IgG1, lambda, V domains shown)
VH: B4 VH
VL: B4 VL
modifications: maleimide-PEG4-vcPAB-MMAF and N-ethyl maleimide on reduced cysteines (sites not given)
B9: PSMB1154 (antibody, human IgG1, lambda, V domains shown)
VH: B4 VH
VL: B4 VL
notes: huIgG1, lambda light chain
B10: PSMB1156 (antibody, human IgG1, lambda, V domains shown)
VH: B2 VH
VL: not shown
notes: huIgG1, lambda light chain
B11: PSMB1098 (antibody, human IgG1, kappa, V domains shown)
VH: QVQLVESGGGVVQPGRSLRLSCAASGFTFSTYGMHWVRQAPGKGLEWVAFISYDGSNKYYADSVKGRFTISRDNSKHTLYLQMNSLRAEDTAVYYCAGRDNLRFLEWFMDVWGQGTTVTVSS
VL: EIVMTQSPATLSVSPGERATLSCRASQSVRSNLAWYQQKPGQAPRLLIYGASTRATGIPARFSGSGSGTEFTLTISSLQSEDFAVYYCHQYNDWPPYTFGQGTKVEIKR
notes: huIgG1, kappa light chain
B12: PSMB1088 (antibody, human IgG1, kappa, V domains shown)
VH: EVQLVESGGGVVQPGRSLRLSCAASGFTFSSYDMHWVRQAPGKGLEWVTVISFDGSNKYYVDSVKGRFTISRDNSKNTLYLQMNSLRAEDTAVYYCARTYYDILTGYSHYSYGMDVWGQGTTVTVSS
VL: EIVMTQSPSSLSASVGDRVTITCRASQGISNYLAWYQQKPGKVPKLLIYATSTLQSGVPSRFSGSGSGTDFILTISSLQPEDVANYYCQKYNSAPFTFGPGTKVEIKR
notes: huIgG1, kappa light chain
B13: PSMB1113 (antibody, human IgG1, kappa, V domains shown)
VH: EVQLVESGGGLVKPGGSLRLSCAASGFTLSIYSMNWVRQAPGKGLEWVSSISSSSSYIFYADSVKGRFTISRDNAKNSLFLQMNSLRAEDTAVYYCARSSYGADYWGQGTLVTVSS
VL: B12 VL with G28D, S30T, Y32F, A50T, T51A, I72T, N85T, F96L, P100G, V104L
notes: huIgG1, kappa light chain
B14: PSMB1195 (antibody, human IgG1, kappa, V domains shown)
VH: EVQLVESGGGLVKPGGSLRLSCAASGFTFSSYSLNWVRQAPGKGLEWVSSISSSSSYISYADAVKGRFTISRDNAKNSLYLQMNSLRAEDTAVYYCARDRGFLEDYYYYYGMDVWGQGTTVTVSS
VL: DIVMTQSPSSVSASVGDRVTITCRASQGISNWLAWYQQKPGKAPKLLIYVASSLQSGVPSRFSGSGSGTDFSLTISSLQPEDFATYYCQQAYSFPLTFGGGTKVEIKR
notes: huIgG1, kappa light chain
B15: PSMB1183 (antibody, human IgG1, lambda, V domains shown)
VH: B3 VH
VL: B3 VL
notes: huIgG1, lambda light chain
B16: PSMB1157 (antibody, human IgG1, lambda, V domains shown)
VH: B1 VH
VL: B1 VL
notes: huIgG1, lambda light chain

How the values were obtained:
[1] = biological target: T1, human prostate-specific membrane antigen (PSMA), full length, on cells (human, UniProt Q04609 1-750); assay: cell-based or functional assay
T1 sequence (Q04609 whole entry): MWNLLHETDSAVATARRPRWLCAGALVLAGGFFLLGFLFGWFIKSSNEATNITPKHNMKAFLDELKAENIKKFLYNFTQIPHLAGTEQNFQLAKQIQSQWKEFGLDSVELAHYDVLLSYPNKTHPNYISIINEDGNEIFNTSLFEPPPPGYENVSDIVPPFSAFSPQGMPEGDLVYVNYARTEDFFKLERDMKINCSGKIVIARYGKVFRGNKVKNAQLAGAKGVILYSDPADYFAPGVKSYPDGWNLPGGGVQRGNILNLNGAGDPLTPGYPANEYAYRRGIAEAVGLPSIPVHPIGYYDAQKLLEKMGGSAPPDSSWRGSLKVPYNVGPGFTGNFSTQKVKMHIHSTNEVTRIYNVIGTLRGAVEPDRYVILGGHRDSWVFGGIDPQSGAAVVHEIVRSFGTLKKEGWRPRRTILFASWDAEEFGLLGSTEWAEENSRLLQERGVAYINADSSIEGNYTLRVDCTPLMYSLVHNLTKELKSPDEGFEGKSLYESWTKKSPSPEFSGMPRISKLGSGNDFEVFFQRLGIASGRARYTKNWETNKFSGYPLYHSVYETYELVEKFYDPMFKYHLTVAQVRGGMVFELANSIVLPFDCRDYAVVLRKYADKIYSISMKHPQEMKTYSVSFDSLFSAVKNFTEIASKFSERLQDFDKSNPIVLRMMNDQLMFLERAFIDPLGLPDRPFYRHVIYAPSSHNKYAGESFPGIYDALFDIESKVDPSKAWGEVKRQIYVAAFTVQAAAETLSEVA

[2] = biological target: T1, human prostate-specific membrane …; assay: cell-based or functional assay; remark: listed apart in the source
[3] = biological target: T2, PSMW39, human PSMA ECD (Lys44-Ala750), N-6xHis (human, UniProt Q04609 44-750); assay: SPR (Biacore 8K), antibody captured on goat anti-Fc C1 chip, PSMA ECD as analyte, 1:1 Langmuir fit
T2 construct: Made in Expi-CHO cells; also called PSMW39.002; recombinant human ECD
T2 sequence (Q04609 other isoform, or with tags, fused parts or gaps): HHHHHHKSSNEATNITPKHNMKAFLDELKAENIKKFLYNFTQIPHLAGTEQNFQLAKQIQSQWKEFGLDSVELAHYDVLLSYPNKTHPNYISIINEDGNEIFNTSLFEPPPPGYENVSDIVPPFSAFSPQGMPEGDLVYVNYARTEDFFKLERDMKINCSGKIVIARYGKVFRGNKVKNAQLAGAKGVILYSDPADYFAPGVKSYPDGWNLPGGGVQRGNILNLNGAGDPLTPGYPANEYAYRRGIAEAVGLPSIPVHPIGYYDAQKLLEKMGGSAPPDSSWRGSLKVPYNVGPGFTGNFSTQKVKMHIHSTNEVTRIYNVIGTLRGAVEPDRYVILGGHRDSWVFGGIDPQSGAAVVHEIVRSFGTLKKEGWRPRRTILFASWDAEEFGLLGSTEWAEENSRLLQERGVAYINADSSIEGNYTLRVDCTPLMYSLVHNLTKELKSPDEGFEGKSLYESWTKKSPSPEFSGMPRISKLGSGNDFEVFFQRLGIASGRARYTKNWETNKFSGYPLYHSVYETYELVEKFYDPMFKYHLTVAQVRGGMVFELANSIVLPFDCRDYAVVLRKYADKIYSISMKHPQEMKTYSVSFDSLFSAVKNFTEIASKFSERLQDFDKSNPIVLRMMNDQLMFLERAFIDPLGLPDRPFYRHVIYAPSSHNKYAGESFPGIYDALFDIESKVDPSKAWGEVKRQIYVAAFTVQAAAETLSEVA
Procedure: The binding affinity of purified anti-PSMA antibodies to the recombinant human ECD was determined by surface plasmon resonance (SPR) using a BIACORE 8K instrument. The antibodies were captured on a goat anti-Fc antibody-modified C1 chip and titrated with 3-fold serial dilutions of PSMA antigen spanning concentrations of 1 nM to 11.1 nM. The association and dissociation were monitored for 3 and 15 minutes, respectively, using a flow rate of 50 μL/min. Raw binding data was referenced by subtracting the analyte binding signals from blanks and analyzed using a 1:1 Langmuir binding model using the Biacore Insight evaluation software to obtain the kinetics which were used to calculate the binding affinity.

[4] = biological target: T1, human prostate-specific membrane …; assay: flow cytometry on C4-2B cells (high PSMA), anti-human AF647 detection, four-parameter fit
Procedure: The affinity of the purified antibodies was also determined on C4-2B, a cell line with high PSMA levels. Briefly, C4-2B cells were washed once with 1×PBS and incubated with 3 mls/T150 flask of cell dissociation buffer until detached, the cells were collected and strained through a […] sieve. Cells were resuspended at 0.5×10e6 cells/mL in staining buffer (BD #554657) and seeded at 25,000 cells/well in V bottom plate (Corning 3894). To each well, 50 μl of Ab 4-fold serially diluted in staining buffer from 120 nM (60 nM final) were added at 2× final concentration. Control mAbs were added at 2 μg/ml, 1 μg/ml final (controls were: —secondary only and isotype control). All primary antibodies were incubated with the cells for 60 min at 4° C. After the primary incubation, 100 μl staining buffer were added to all wells and the cells were washed by pelleting by centrifugation at 300×g 5 min and buffer removed by flicking the plate. Then cells were similarly washed again with 200 μl staining buffer. […] After 30 minutes incubation at 4° C., the cells were washed as described above with 150 ul staining buffer, followed by a final wash with 200 ul running buffer (Running buffer is staining buffer plus 1 mM EDTA and 0.1% pluronic acid). Cells were resuspended in 30 ul/well running buffer with 1:1000 Sytox Blue viability stain (Invitrogen #S34857) and stored at 4° C. until read on the flow cytometer. Plates were read on an IntelliCyt IQue 3 instrument. Briefly, cells were gated on live cells, then populations were gated on singlets. Antibody binding was assessed by AF647 fluorescence at 647 nm. Data was analyzed in GeneData Screener with signal/background AF647 fluorescence plotted against antibody concentration.

Row | Binder | Kd [3] [nM] | koff [3] [s⁻¹] | kon [3] [M⁻¹ s⁻¹] | EC50 [4] [nM] | other results
1 | B1 |  |  |  |  | C4-2B IC50 (cytotoxicity, vcMMAF ADC, DAR 3.6, 72 h) [1]: 0.03 nM
2 | B2 |  |  |  |  | C4-2B IC50 (cytotoxicity, vcMMAF ADC, DAR 2.9, 72 h) [1]: 0.04 nM
3 | B3 |  |  |  |  | C4-2B IC50 (cytotoxicity, vcMMAF ADC, DAR 3.6, 72 h) [1]: 0.03 nM
4 | B4 |  |  |  |  | IC50 (cytotoxicity on 22RV1 cells, DX8951 ADC, DAR 8, 6 d) [2]: 0.8 nM
5 | B5 |  |  |  |  | IC50 (cytotoxicity on 22RV1 cells, DX8951 ADC, DAR 8, 6 d) [2]: 2.2 nM
6 | B6 |  |  |  |  | IC50 (cytotoxicity on 22RV1 cells, DX8951 ADC, DAR 8, 6 d) [2]: 1.4 nM
7 | B7 |  |  |  |  | IC50 (cytotoxicity on 22RV1 cells, DX8951 ADC, DAR 8, 6 d) [2]: 0.7 nM
8 | B8 |  |  |  |  | C4-2B IC50 (cytotoxicity, vcMMAF ADC, DAR 4, 72 h) [1]: 0.03 nM
9 | B9 | 1.09 | 0.00019 | 174000 | 0.306 | 
10 | B10 | 0.548 | 0.000168 | 306000 | 0.633 | 
11 | B11 | 0.54 | 2.85e-05 | 52700 | 2.46 | 
12 | B12 | 0.97 | 2.85e-05 | 29400 | 12.4 | 
13 | B13 | 1.16 | 6.65e-05 | 57300 | 2.52 | 
14 | B14 | 9.45 | 0.000101 | 10700 | 13.8 | 
15 | B15 | 0.928 | 0.000401 | 432000 | 0.156 | 
16 | B16 | 1.42 | 0.000274 | 194000 | 0.381 | 
